These results are taken from patent US20050070692A1 (published 2005).

Substitutions are numbered along the chain they refer to. Names and notes keep the numbering of the source.

Assay [1] concerns the target T1, human IL-1β (human, UniProt P01584 117-269).
T1 construct: mature; also called mature human IL-1β; Interleukin-1β
The assay can be described thus: competition ELISA on coated human IL-1β against biotinylated Mu007, average of three experiments. The procedure:
(§1) Wells of 96-well ELISA plates (Nunc-lmmuno plate, Cat # 439454, NalgeNunc) were coated with 100 μL of 0.5. μg/mL of human IL-1β in 0.2M sodium carbonate-bicarbonate buffer (pH 9.4) overnight at 4° C., washed with Wash Buffer, blocked with Superblock blocking buffer for 30 min at 37° C., and washed again with Wash Buffer. A mixture of biotinylated Mu007 (0.16 μg/mL final concentration) and competitor antibody (Mu007, Hu007, or Hu007 analogs starting at 100 μg/mL final concentration and serial 3-fold dilutions) in ELISA Buffer were added in triplicate in a final volume of 100 μL per well. As a no-competitor control, 100 μL of 0.16 μg/mL biotinylated Mu007 was used. As a background control, 100 gLL of ELISA Buffer was used. ELISA plates were incubated at 37° C. for 2 hr. After washing the wells with Washing Buffer, 100 μL of 1 μg/mL HRP-conjugated streptavidin (Jackson ImmunoResearch) was added to each well. ELISA plates were incubated at room temperature for 30 min and washed with Washing Buffer. For color development, 100 μL/well of ABTS substrate was added. Color development was stopped by adding 100 μL/well of 2% oxalic acid. Absorbance was read at 415 nm.
Mu007, Hu007 and Hu007 analogs competed with biotinylated Mu007 in a concentration-dependent manner. […]

The target in assay [2] is T1, human IL-1β. The assay can be described thus: competition ELISA on coated human IL-1β against biotinylated Mu007, Exp. C. As to the method: as §1
(§2) Mu007, Hu007 and Hu007 analogs competed with biotinylated Mu007 in a concentration-dependent manner. The IC₅₀ values of Mu007 and Hu007 in three independent ELISA competition experiments, obtained using the computer software Prism (GraphPad Software Inc., San Diego, Calif.) are shown in Table 1. The relative binding of Hu007 was on average 89% of Mu007.

The target of assay [3] is T1, human IL-1β. The assay can be described thus: competition ELISA on coated human IL-1β against biotinylated Mu007, Exp. A. As to the method: as §1, §2
Assay [4] concerns the target T1, human IL-1β. The experiment in a line: cell-based or functional assay.
Assay [5] has as its target T1, human IL-1β. The experiment in a line: competition ELISA on coated human IL-1β against biotinylated Mu007, Exp. B. As to the method:
as §1, §2

A further assay addresses T2, cynomolgus monkey IL-1β (cynomolgus monkey, UniProt P79182 117-268).
T2 construct: also called Cynomolgus IL-1β
T2 sequence (looked up): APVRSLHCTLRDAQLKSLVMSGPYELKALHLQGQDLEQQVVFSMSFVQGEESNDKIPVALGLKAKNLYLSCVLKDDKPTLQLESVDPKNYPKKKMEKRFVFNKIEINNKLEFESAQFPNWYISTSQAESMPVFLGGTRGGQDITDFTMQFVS
The experiment in a line: BIAcore, antibody captured on anti-IgG CM5 chip, IL-1β flowed. As to the method:
(§3) Affinities and specificities of both Hu007 and Mu007 were determined using BlAcore measurements. BIAcore™ is an automated biosensor system that measures molecular interactions. (Karlsson, et al. (1991) J. Immunol. Methods 145: 229-240). In these experiments antibody was immobilized at low density on a BIAcore™ chip. Ethyl-dimethylaminopropyl-carbodiimide (EDC) was used to couple reactive amino groups to purified goat anti-human IgG or goat anti-rabbit IgG to a flow cell of a carboxy-methyl (CM5) BIAcore™ sensor chip. Goat IgG was diluted in sodium acetate buffer, pH 4.0, and immobilized on a flow cell of a CM5 chip using EDC to yield 1000 response units. Unreacted sites were blocked with ehanolamine. A flow rate of 60 μL/min was used. Multiple binding/elution cycles were performed by injection a 100 μL solution of 15 μg/mL Mu007 or Hu007 followed by human IL-1β, mouse IL-1β, rat IL-1β, cynomolgus monkey IL-1β, porcine IL-1β, human IL-1 receptor antagonist, and human IL-1α at decreasing concentrations for each cycle (e.g., 1500, 750, 375, 188, 94, 47, 23.5, 12, and 0 picomolar). Elution was performed with glycine-HCl, pH 1.5. BIAevaluation™ was used to analyze the kinetic data. Table 2 depicts the affinities of Hu007 and Mu007 for human and cynomolgus IL-1β. […] Cynomolgus and porcine IL-1β had 100% binding to Hu007 relative to human IL-1β.

Assay [6] has as its target T1, human IL-1β. The assay is described as above. The procedure: as §3
In assay [7] the target is T1, human IL-1β. The experiment in a line: cell-based or functional assay. The source holds these as a separate data set.
Assay [8] deals with T1, human IL-1β. The assay can be described thus: BIAcore (Example 13). The procedure:
(§4) Affinities and specificities of several Hu007 analogs were determined using BIAcore measurements. BIAcore™ is an automated biosensor system that measures molecular interactions. (Karlsson, et al. (1991) J. Immunol. Methods 145: 229-240). In these experiments antibody was immobilized at low density on a BIAcore™ chip. Ethyl-dimethylaminopropyl-carbodiimide (EDC) was used to couple reactive amino groups to protein A to a flow cell of a carboxy-methyl (CM5) BIAcore™ sensor chip. Protein A was diluted in sodium acetate buffer, pH 4.5, and immobilized on a flow cell of a CM5 chip using EDC to yield approximately 1000 response units. Unreacted sites were blocked with ethanolamine. A flow rate of 60 μl/min was used. Multiple binding/elution cycles were performed by injection of 10 μl of a 5 μg/mL Hu007 solution, and heavy chain CDR2 analogs N55D, N55S, N55Q, G56A, and G56V, followed by human IL-1β at decreasing concentrations for each cycle (e.g. 1500, 750, 375, 188, and […]). Elution was performed with glycine-HCl, pH 1.5. BIAevaluation™ was used to analyze the kinetic data. Table 5 depicts the affinities of Hu007 and the various Hu007 analogs for human IL-1β.

The target in assay [9] is T1, human IL-1β. The assay can be described thus: BIAcore, antibody captured on protein A CM5 chip, human IL-1β flowed. The procedure:
as §4

B1: mouse monoclonal antibody Mu007 (antibody, V domains shown)
VH: QVQLVQSGAEVKKPGASVKVSCKVSGYTFSRYWIEWVRQAPGKGLEWIGEILPGNGNINYNEKFKGKATITADTSTDTAYMELSSLRSEDTAVYYCSTIYYDYDQGFTYWGQGTLVTVSA
VL: DIKMTQSPSSMYASLGERVTITCKASQDIDRYLSWFQQKPGKSPKTLIYRVKRLVDGVPSRFSGSASGQDYSLTISSLQYEDMGIYYCLQYDEFPYTFGGGTKLEIK
As for B1, the IC50 with human IL-1β [1] came out at 0.4 µg/mL; in the assay with human IL-1β [2], 0.39 µg/mL; with human IL-1β [3], 0.4 µg/mL; with human IL-1β [5], 0.4 µg/mL. Also, the “IC50, inhibition of IL-1β stimulated proliferation of T1165.17 cells (3H-thymidine), average of three experiments” value with human IL-1β [4] turned out to be 0.22 nM. For the same molecule, the Kd with cynomolgus monkey IL-1β was found to be 0.0073 nM; in the assay with human IL-1β [6], 0.0062 nM.

B2: Hu007 analog N55D (antibody, human IgG1, kappa, V domains shown)
VH: B1 VH with N55D, A120S
VL: DIQMTQSPSSLSASVGDRVTITCKASQDIDRYLSWFQQKPGKAPKSLIYRVKRLVDGVPSRFSGSASGTDYTLTISSLQPEDFATYYCLQYDEFPYTFGQGTKLEIKR
notes: IgG1; Heavy chain of Hu007 with N55D, co-transfected with the WT Hu007 light chain; It mimics fully deamidated Hu007; also called heavy chain CDR2 analog N55D
B2: in the assay with human IL-1β [7], the “IC50, inhibition of human IL-1β stimulated proliferation” value was found to be 1100 Picomolar. In addition, the “fold loss of binding affinity against Hu007” value in the assay with human IL-1β [8] was ~15 fold. Besides, in the assay with human IL-1β [9], the affinity, expressed as Kd, was 0.149 nM.

B3: Hu007 analog N55Q (antibody, human IgG1, kappa, V domains shown)
VH: B1 VH with N55Q, A120S
VL: B2 VL
notes: IgG1; Heavy chain of Hu007 with N55Q, co-transfected with the WT Hu007 light chain
Take B3: in the assay with human IL-1β [7], the “IC50, inhibition of human IL-1β stimulated proliferation” value was found to be 2500 Picomolar. In the assay with human IL-1β [9], the Kd amounted to 0.257 nM.

B4: Hu007 analog G56A (antibody, human IgG1, kappa, V domains shown)
VH: B1 VH with G56A, A120S
VL: B2 VL
notes: IgG1; Heavy chain of Hu007 with G56A, co-transfected with the WT Hu007 light chain
As to B4, the “IC50, inhibition of human IL-1β stimulated proliferation” value in the assay with human IL-1β [7] stood at 184 Picomolar. Moreover, the Kd in the assay with human IL-1β [9] turned out to be 0.0336 nM.

B5: Hu007 analog N55S (antibody, human IgG1, kappa, V domains shown)
VH: B1 VH with N55S, A120S
VL: B2 VL
notes: IgG1; also called heavy chain CDR2, N55S
B5: the “IC50, inhibition of human IL-1β stimulated proliferation” value with human IL-1β [7] is 184 Picomolar. Besides, in the assay with human IL-1β [8], the “fold of the binding affinity of Hu007” value was ≤ 3 fold. The affinity with human IL-1β [9], expressed as Kd, was 0.0281 nM.

B6: Hu007 analog G56V (antibody, human IgG1, kappa, V domains shown)
VH: B1 VH with G56V, A120S
VL: B2 VL
notes: IgG1; Heavy chain of Hu007 with G56V, co-transfected with the WT Hu007 light chain
On to B6, for which the “IC50, inhibition of human IL-1β stimulated proliferation” value with human IL-1β [7] is 395 Picomolar. For the same molecule, in the assay with human IL-1β [9], the affinity, expressed as Kd, was 0.0732 nM.
